Laboratory results taken from paper PMC2605961.

Experiments:
Assay in all cases: EMSA
His-PRH (wild type) = target: T1, His-PRH (wild type) (human, UniProt Q03014 7-270)
T1 sequence: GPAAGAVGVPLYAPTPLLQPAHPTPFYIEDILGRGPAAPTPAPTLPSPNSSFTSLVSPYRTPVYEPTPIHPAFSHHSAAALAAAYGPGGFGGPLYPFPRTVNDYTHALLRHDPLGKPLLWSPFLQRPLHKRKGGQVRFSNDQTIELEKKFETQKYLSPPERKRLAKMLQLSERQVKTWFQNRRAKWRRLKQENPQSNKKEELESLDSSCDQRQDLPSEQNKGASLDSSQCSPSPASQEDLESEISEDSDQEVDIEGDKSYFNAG

His-PRH F32E = target: T2, His-PRH F32E (human, UniProt Q03014 7-270, F32E)
T2 sequence: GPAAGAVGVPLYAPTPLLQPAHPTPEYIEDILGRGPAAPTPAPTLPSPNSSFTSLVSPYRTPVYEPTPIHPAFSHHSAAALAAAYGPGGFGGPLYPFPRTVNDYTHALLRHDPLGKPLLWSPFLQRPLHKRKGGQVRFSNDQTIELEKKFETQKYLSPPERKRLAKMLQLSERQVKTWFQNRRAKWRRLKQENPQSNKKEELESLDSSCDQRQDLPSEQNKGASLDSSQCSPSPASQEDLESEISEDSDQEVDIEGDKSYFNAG

His-PRH R188A,R189A = target: T3, His-PRH R188A,R189A (human, UniProt Q03014 7-270, R188A;R189A)
T3 sequence: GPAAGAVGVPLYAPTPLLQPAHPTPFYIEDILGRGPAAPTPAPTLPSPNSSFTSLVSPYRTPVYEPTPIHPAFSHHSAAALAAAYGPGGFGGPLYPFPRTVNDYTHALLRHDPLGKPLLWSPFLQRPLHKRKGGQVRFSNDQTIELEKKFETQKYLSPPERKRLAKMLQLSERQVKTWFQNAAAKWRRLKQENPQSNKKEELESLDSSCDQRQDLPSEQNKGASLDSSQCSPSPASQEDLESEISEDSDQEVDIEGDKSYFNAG

His-PRH N187A = target: T4, His-PRH N187A (human, UniProt Q03014 7-270, N187A)
T4 sequence: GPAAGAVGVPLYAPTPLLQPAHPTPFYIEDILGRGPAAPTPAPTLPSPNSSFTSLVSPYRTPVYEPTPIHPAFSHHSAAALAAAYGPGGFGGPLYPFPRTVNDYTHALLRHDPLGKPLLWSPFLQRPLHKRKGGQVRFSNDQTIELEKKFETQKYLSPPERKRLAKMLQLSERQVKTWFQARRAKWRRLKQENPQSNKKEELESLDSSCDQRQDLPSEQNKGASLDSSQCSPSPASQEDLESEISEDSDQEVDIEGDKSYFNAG

B1: PRH-binding site oligonucleotide (dsDNA)
DNA 1: GCTTCTGGGAAGCAATTAAAAAATGGCTCGAGCT
DNA 2: CGAGCCATTTTTTAATTGCTTCCCAGA
B1: binds (His-PRH (wild type)); binds (His-PRH F32E); no binding (His-PRH R188A,R189A). B1: no binding (His-PRH N187A).
